Data from the supplement of paper PMC10567573.

B1: KLHL14 (parent)
chain: NETGYLSSVECYNLETNEWRYVSS
B2: SPOPL (parent)
chain: PDDKLTLFCEVSVVQDSVNISGHT

Variants of: B1
Assay: protein stability index of a GFP-peptide fusion (GPS, HEK-293T) (PSI 1-6); higher = more stable
Conditions: c terminus: a fixed tail appended
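Further: lentivirally expressed fusions sorted by FACS into six bins by GFP to DsRed ratio, PSI derived from sequencing read proportions per bin multiplied by bin number.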

Protein stability index of substitutions, site by site:
Y12: W 3.1
W19: H 4.77; E 4.97; N 5.05; D 4.83; M 4.36; I 4.75; V 4.58; L 4.37; Q 4.31; S 5.26; A 4.75; K 5.08; T 4.99; Y 4.5; R 4.92; F 4.71; P 3.66; C 4.26
T16: Y 2.8; S 3.8; V 3; H 3.26; L 2.63; E 3.83; D 4.07; I 2.48; K 2.96; W 2.05; F 2.71; C 3.58; Q 4.16; M 2.66; G 3.83; R 3.17; N 3.52; P 2.89
S23: K 3.27; M 3.59; G 4.02; C 3.22; V 3.76; Y 3.71; R 2.87; T 3.38; I 4.09; D 4.24; E 3.68; F 3.67; H 3.26; N 3.98; L 2.07; A 3.19; Q 3.73; P 3.39
V22: R 3.2; Y 3.02; K 3.25; P 3.16; E 4.18; F 2.14; D 3.8; W 2.22; H 2.18; C 2.29; N 3.27; L 2.81; M 2.95; A 3.42; S 2.71; Q 3.73; T 3.01; G 3.85; I 2.47
R20: M 2.65; Q 3.49; W 2.41; Y 2.18; E 4.04; A 2.95; K 3.6; T 2.69; I 2.3; C 2.43; V 2.32; P 3.35; H 2.83; G 3.06; D 4.12; F 2.2; S 3.04; N 3.51; L 1.88
N17: E 4.2; C 2.84; W 2.25; M 3.19; L 3.66; Q 4.06; I 2.31; T 3.01; G 3.67; K 3.72; R 3.01; P 3.42; H 3.31; A 2.92; F 2.9; S 4.14; Y 2.64; V 3.06; D 4.02
E18: F 3.41; C 2.55; V 2.62; T 3.22; L 3.02; A 2.83; Q 2.93; P 2.58; S 2.9; H 2.94; M 2.92; K 3.48; R 3.68; G 2.36; Y 2.57; N 3.49; I 2.68; D 3.72; W 2.15
E15: D 3.41; F 1.8; P 2.54; S 2.08; C 2.34; L 2.61; Q 2.58; G 3.18; M 2.63; R 2.39; H 2.42; A 1.94; Y 2.15; W 2.13; V 2.25; I 1.84; N 3.03; K 3.66; T 2.02
S24: F 3.94; H 3.82; N 3.91; M 3.93; W 3.44; I 3.02; V 3.38; Q 3.6; K 4.28; G 3.82; C 4; T 3.65; D 3.83; L 3.41; R 3.61; A 4.1; Y 3.19; P 4.2; E 3.77
N13: K 2.56; A 2.99; W 1.71; I 1.52; L 1.8; T 3.24; M 2.21; S 2.69; G 2.67; P 3.48; C 2.06; Q 2.8; V 1.47; E 2.79; H 2.73; F 1.64; Y 2.63; D 3.83; R 2.81
Y21: L 3.1; Q 3.02; R 3.24; P 3.21; W 3.5; D 4; K 2.89; I 2.87; M 3.82; E 3.66; C 3.57; H 2.96; V 3.57; N 3.67; T 3.93; A 3.79; F 1.83; S 3.61; G 3.14
L14: S 4.68; V 3.41; E 4.6; G 3.49; H 3.74; R 3.73; I 3.35; C 3.2; Q 3.88; P 4.16; Y 2.95; D 4.15; K 3.99; F 3.38; M 3.46; T 3.62; N 4.24; A 3.96; W 3.11

Variants of: B2
Assay: as above
Conditions: c terminus: a fixed tail appended

Protein stability index of substitutions, site by site:
D3: W 1.73; C 1.75; H 1.47; Q 1.95; S 1.79; L 2.11; T 1.51; G 2.43; M 1.93; E 2.2; A 2.06; R 2.05; K 1.83; P 2.5; F 1.87; N 2.44; V 1.8; I 2.06; Y 1.97
L5: G 3.07; H 3.96; D 4.41; P 4.1; C 2.88; V 1.81; S 3.63; W 1.26; A 3.66; Y 2.28; K 3.82; T 3.33; Q 3.73; R 3.85; N 3.95; E 3.9; F 1.52; M 2.21; I 1.88
T6: R 2.02; F 2.98; M 1.79; P 3.47; A 2.15; H 2.4; D 2.84; I 1.8; C 1.81; K 3.34; N 2.96; Q 2.58; G 3.19; E 2.33; L 1.73
K4: L 2.39; C 1.56; M 1.58; N 1.98; D 2.81; T 1.53; A 1.89; R 1.79; H 1.95; I 1.48; G 2.12; P 2.27; Q 2.16; S 2.23; Y 2.26; F 2.19; E 2.32
P1: G 1.99; E 2.2; N 2.42; V 1.36; M 1.81; Q 2.02; S 2.05; L 2.2; W 2.11; D 2.17; H 2.18; I 3.71; A 1.81; Y 1.69; K 2.02; T 2; F 2.36; R 2.1; C 1.93
D2: Q 3.11; H 2.04; A 1.61; C 1.62; I 2.02; S 1.74; T 1.38; L 1.46; G 2.44; R 2.53; M 1.61; Y 1.38; K 2.02; N 1.44; W 3.07; V 3.9; P 2.71; F 1.5; E 2.29
